In the supplement of paper PMC10567573:

B1: MMP1 (parent)
chain: FVRGDHRDNSPFDGPGGNLAHAFQ
B2: ELF3 (parent)
chain: RLVYKFGKNSSGWKEEEVLQSRN

Variants of: B1
Experiment: protein stability index of a GFP-peptide fusion (GPS, HEK-293T) (PSI 1-6); higher = more stable
Settings: c terminus: a fixed tail appended
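Further: lentivirally expressed fusions sorted by FACS into six bins by GFP to DsRed ratio, PSI derived from sequencing read proportions per bin multiplied by bin number.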

Protein stability index of substitutions, site by site:
H21: L 1.57 | D 2.15 | A 2.77 | S 2.2 | I 2.7 | T 2.1 | M 2.01 | F 2.31 | V 1.6 | P 1.47 | E 1.94 | R 1.33 | Y 2.91 | Q 1.62 | K 1.95 | G 1.81 | N 2.15 | C 2.53
P15: S 4.22 | R 3.76 | W 1.87 | Q 1.64 | M 2.72 | L 1.95 | T 1.38 | Y 2.52 | N 2.11
Q24: M 2.73 | C 1.72 | T 3.41 | V 2.39 | N 1.62 | F 2.78 | S 1.02 | H 1.84 | K 1.6 | R 1.63 | D 2.75 | A 1.88 | Y 3.94 | E 3.81 | L 1.93 | P 1.97 | G 1.99
A22: I 2.06 | K 2.42 | V 1.53 | C 1.98 | M 2.4 | Y 2.34 | L 1.74 | T 2.31 | W 1.68 | E 1.38 | P 3.37 | F 2.25 | G 1.58 | N 1.75 | D 2.44 | R 2.58 | S 1.91 | Q 1.46 | H 2
A20: F 2.66 | R 1.43 | C 2.69 | G 1.92 | P 1.74 | L 2.49 | Q 1.69 | Y 1.29 | V 1.99 | T 3.31 | K 2.56 | I 2.04 | S 1.88 | M 1.88 | D 1.74 | E 1.89 | N 1.76 | H 1.44
F23: I 2.33 | G 2.12 | M 2.25 | W 2.74 | K 2.45 | E 2.38 | C 1.38 | L 1.89 | T 1.56 | P 2.63 | R 2.03 | A 1.78 | H 2.08 | Y 2.12 | S 1.88 | Q 2.11 | V 1.99 | N 1.73 | D 1.9
G17: M 3.38 | A 1.58 | Y 3.31 | D 1.82 | H 1.9 | L 2.29 | R 1.79 | C 2.62 | S 2.3 | N 2.48 | E 1.6 | V 2.43 | Q 1.95 | F 2.18 | K 1.92 | W 2.48 | P 1.37 | I 2.43 | T 2.05
N18: V 2.14 | H 1.88 | G 1.99 | A 2.74 | T 1.92 | F 4.34 | D 1.5 | Y 1.7 | S 2.18 | Q 2.27 | M 1.99 | K 2.5 | C 1.5 | I 1.01 | L 3.23 | P 2.17 | E 2.15 | R 3.01
L19: P 1.49 | A 1.38 | I 1.95 | N 1.73 | S 1.15 | F 2 | H 1.39 | C 1.96 | T 2.08 | E 1.99 | V 3.29 | Y 1.64 | G 2.63 | R 1.66 | D 2.35 | K 2.25 | M 2.1 | Q 1.51
G16: A 1.34 | W 3.43 | L 2.81 | M 1.79 | E 2.54 | R 2.45 | T 2.32 | I 2.4 | K 1.52 | N 1.69 | Y 2.73 | D 2.29 | Q 2.75 | H 1.87 | P 1.75 | V 1.83 | C 2.63 | S 2.23

Variants of: B2
Experiment: as above
Settings: c terminus: native

Protein stability index: each site, then its substitutions
Y4: M 2.55 | D 3.73 | P 3.43 | N 3.13 | V 2.82 | H 3.8 | I 2.12 | G 2.69 | R 1.23 | Q 3.16 | C 1.95 | E 3.47 | K 3.36 | S 2.42 | A 3.39 | T 3.06 | F 2.35 | L 1.83
S10: D 3.25 | G 2.11 | F 1.34 | I 1.66 | C 2.55 | H 2.56 | A 2.64 | E 2.86
R1: M 2.4 | C 2.32 | V 1.24 | G 2.87 | Q 2.67 | F 2.22 | I 1.62 | P 3.7 | S 1.69 | H 2.72 | L 1.83 | Y 1.69 | K 2.55 | E 3.17 | A 2.54 | N 3 | T 2.18
F6: C 1.42 | E 4.52 | I 2.26 | T 3.5 | Q 3.08 | K 3.53 | L 1.61 | P 3.47 | N 3.65 | W 2.12 | A 3.69 | S 3.28 | H 3.29 | Y 2.45 | G 3.75 | R 3.06 | V 3.89 | D 4.7
N9: Y 1.25 | L 2.59 | V 2.08 | D 3.19 | M 4.34 | Q 1.87 | H 1.68 | E 3.08 | K 1.97 | G 1.9 | S 2.22 | A 1.7 | P 2.33 | F 1.98 | T 1.73 | R 2.91
K8: R 1.31 | I 2.14 | D 3.36 | A 2.77 | P 2.25 | M 1.38 | G 2.49 | Y 1.42 | E 2.97 | V 1.91 | H 2.26 | L 1.92 | S 2.44 | T 2.62 | N 2.46 | C 2.85 | F 1.86
G7: I 1.46 | W 3.57 | E 2.94 | Y 2.41 | R 2.29 | M 1.81 | N 2.64 | T 2.31 | P 2.31 | V 1.49 | S 2.67 | D 4.11 | A 1.89 | Q 2.5 | K 1.9 | H 1.8
K5: E 2.89 | R 1.05 | M 1.91 | Y 2.16 | V 1.95 | D 2.8 | Q 2.09 | L 2.75 | A 1.76 | I 1.36 | P 1.89 | S 2.5 | N 2.39 | C 2.52 | H 1.98 | T 2.14
V3: H 2.53 | K 2.49 | N 3.46 | C 1.71 | A 3.88 | D 4.2 | F 2.38 | L 1.9 | M 2.38 | P 2.63 | G 2.48 | T 2.86 | R 2.75 | Y 2.37 | E 4.75 | S 2.7
L2: C 2.29 | G 2.78 | M 2.99 | V 2.71 | K 2.31 | W 1.58 | F 2.79 | I 2.45 | Q 3.04 | Y 1.85 | P 2.66 | H 3.38 | A 3.2 | E 4.2 | N 3.41 | D 4.22 | S 2.93 | T 2.84 | R 2.87
